In the supplement of paper PMC9112550, “Optimization of the antimicrobial peptide Bac7 by deep mutational scanning” (BMC Biology, 2022):

Tested on: Escherichia coli TOP10
Assay: shrunken log2 fold change of peptide-encoding DNA abundance (4.5 h post-induction vs induction); higher = less antimicrobial activity (less host growth inhibition)
Conditions: time post-induction: 4.5 h; library: site-saturation at positions 5, 18, 19, 20
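Further: peptides expressed intracellularly from a pBAD plasmid library in pooled LB shake-flask culture, induced with 0.3% L-arabinose, DNA abundance read by NGS, three biological replicates, DESeq2 with apeglm shrinkage.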

RRIRCRPPRLPRPRPRPWFYPRP
shrunken log2 fold change: -0.758

RRIRARPPRLPRPRPRPHKDPRP
shrunken log2 fold change: 0.0954

RRIRFRPPRLPRPRPRPEAVPRP
shrunken log2 fold change: 0.323

RRIRIRPPRLPRPRPRPHARPRP
shrunken log2 fold change: 3.76

RRIRNRPPRLPRPRPRPSWYPRP
shrunken log2 fold change: -0.81

RRIRFRPPRLPRPRPRPTNGPRP
shrunken log2 fold change: -0.137

RRIRQRPPRLPRPRPRPEGGPRP
shrunken log2 fold change: 0.161

RRIRKRPPRLPRPRPRPHMFPRP
shrunken log2 fold change: -0.469

RRIRYRPPRLPRPRPRPSNAPRP
shrunken log2 fold change: -1

RRIRHRPPRLPRPRPRPVDIPRP
shrunken log2 fold change: -0.167

RRIRPRPPRLPRPRPRPLPIPRP
shrunken log2 fold change: -0.301

RRIRNRPPRLPRPRPRPCYFPRP
shrunken log2 fold change: -0.408

RRIRVRPPRLPRPRPRPYNAPRP
shrunken log2 fold change: -0.521

RRIRMRPPRLPRPRPRPWPYPRP
shrunken log2 fold change: 0.213

RRIRRRPPRLPRPRPRPLWKPRP
shrunken log2 fold change: 0.115

RRIRDRPPRLPRPRPRPHPRPRP
shrunken log2 fold change: 0.081

RRIRVRPPRLPRPRPRPQCLPRP
shrunken log2 fold change: -0.0868

RRIRRRPPRLPRPRPRPLFYPRP
shrunken log2 fold change: -0.248

RRIRFRPPRLPRPRPRPEGKPRP
shrunken log2 fold change: 0.143

RRIRMRPPRLPRPRPRPKIMPRP
shrunken log2 fold change: -0.208

RRIRSRPPRLPRPRPRPHIWPRP
shrunken log2 fold change: -0.442

RRIRFRPPRLPRPRPRPYTDPRP
shrunken log2 fold change: -0.233

RRIRIRPPRLPRPRPRPKFYPRP
shrunken log2 fold change: -0.713

RRIRPRPPRLPRPRPRPIHIPRP
shrunken log2 fold change: -0.405

RRIRIRPPRLPRPRPRPTFYPRP
shrunken log2 fold change: -0.462

RRIRWRPPRLPRPRPRPDKEPRP
shrunken log2 fold change: 0.0411

RRIRIRPPRLPRPRPRPRKGPRP
shrunken log2 fold change: 0.05

RRIRGRPPRLPRPRPRPPAQPRP
shrunken log2 fold change: 1.4

RRIRGRPPRLPRPRPRPDNQPRP
shrunken log2 fold change: 0.168

RRIRGRPPRLPRPRPRPYYCPRP
shrunken log2 fold change: -0.172

RRIRKRPPRLPRPRPRPGCAPRP
shrunken log2 fold change: 0.82

RRIRERPPRLPRPRPRPEILPRP
shrunken log2 fold change: -0.159

RRIRWRPPRLPRPRPRPHNRPRP
shrunken log2 fold change: -0.205

RRIRGRPPRLPRPRPRPWQSPRP
shrunken log2 fold change: 0.161

RRIRKRPPRLPRPRPRPKAFPRP
shrunken log2 fold change: 0.0156

RRIRHRPPRLPRPRPRPAQCPRP
shrunken log2 fold change: 0.101

RRIRERPPRLPRPRPRPTLNPRP
shrunken log2 fold change: -0.152

RRIRHRPPRLPRPRPRPICMPRP
shrunken log2 fold change: -0.00804

RRIRVRPPRLPRPRPRPLKVPRP
shrunken log2 fold change: -0.136

RRIRWRPPRLPRPRPRPQLRPRP
shrunken log2 fold change: 0.0178

RRIRKRPPRLPRPRPRPLTPPRP
shrunken log2 fold change: 0.658

RRIRMRPPRLPRPRPRPVGEPRP
shrunken log2 fold change: 0.141

RRIRRRPPRLPRPRPRPSGFPRP
shrunken log2 fold change: 0.0452

RRIRCRPPRLPRPRPRPSDPPRP
shrunken log2 fold change: -0.317

RRIRCRPPRLPRPRPRPDINPRP
shrunken log2 fold change: -0.294

RRIRARPPRLPRPRPRPMDIPRP
shrunken log2 fold change: 0.142

RRIRERPPRLPRPRPRPNHSPRP
shrunken log2 fold change: -0.594

RRIRLRPPRLPRPRPRPQSVPRP
shrunken log2 fold change: -0.325

RRIRLRPPRLPRPRPRPAWKPRP
shrunken log2 fold change: 0.151

RRIRNRPPRLPRPRPRPVWTPRP
shrunken log2 fold change: -0.118

RRIRCRPPRLPRPRPRPHREPRP
shrunken log2 fold change: -0.0514

RRIRKRPPRLPRPRPRPVASPRP
shrunken log2 fold change: 0.533

RRIRQRPPRLPRPRPRPMKEPRP
shrunken log2 fold change: -0.0272

RRIRYRPPRLPRPRPRPIYCPRP
shrunken log2 fold change: -0.15

RRIRLRPPRLPRPRPRPKWYPRP
shrunken log2 fold change: -0.299

RRIRDRPPRLPRPRPRPHIRPRP
shrunken log2 fold change: 0.00704

RRIRWRPPRLPRPRPRPDVGPRP
shrunken log2 fold change: 0.181

RRIRYRPPRLPRPRPRPNHYPRP
shrunken log2 fold change: -0.739

RRIRGRPPRLPRPRPRPSFSPRP
shrunken log2 fold change: 0.154

RRIRIRPPRLPRPRPRPDTGPRP
shrunken log2 fold change: -0.375

RRIRSRPPRLPRPRPRPCWYPRP
shrunken log2 fold change: -0.393

RRIRHRPPRLPRPRPRPLYPPRP
shrunken log2 fold change: -0.804

RRIRKRPPRLPRPRPRPGWVPRP
shrunken log2 fold change: 0.573

RRIRGRPPRLPRPRPRPAANPRP
shrunken log2 fold change: 0.911

RRIRWRPPRLPRPRPRPLLSPRP
shrunken log2 fold change: 0.148

RRIRDRPPRLPRPRPRPPARPRP
shrunken log2 fold change: 1.46

RRIRNRPPRLPRPRPRPLHRPRP
shrunken log2 fold change: -0.249

RRIRHRPPRLPRPRPRPIFLPRP
shrunken log2 fold change: -0.572

RRIRWRPPRLPRPRPRPYCEPRP
shrunken log2 fold change: -0.481

RRIRFRPPRLPRPRPRPYMWPRP
shrunken log2 fold change: -1.43

RRIRHRPPRLPRPRPRPHGPPRP
shrunken log2 fold change: 0.0873

RRIRTRPPRLPRPRPRPWARPRP
shrunken log2 fold change: -0.00874

RRIRRRPPRLPRPRPRPPRDPRP
shrunken log2 fold change: 1.48

RRIRHRPPRLPRPRPRPTMFPRP
shrunken log2 fold change: -0.0195

RRIRLRPPRLPRPRPRPEATPRP
shrunken log2 fold change: 0.294

RRIRMRPPRLPRPRPRPLCDPRP
shrunken log2 fold change: 1.11

RRIRQRPPRLPRPRPRPTNYPRP
shrunken log2 fold change: -0.248

RRIRKRPPRLPRPRPRPQNIPRP
shrunken log2 fold change: -0.21

RRIRDRPPRLPRPRPRPTCGPRP
shrunken log2 fold change: 1.11

RRIRNRPPRLPRPRPRPHQYPRP
shrunken log2 fold change: -0.458

RRIRVRPPRLPRPRPRPRKWPRP
shrunken log2 fold change: 0.474

RRIRSRPPRLPRPRPRPQRFPRP
shrunken log2 fold change: -0.152

RRIRQRPPRLPRPRPRPQDMPRP
shrunken log2 fold change: 0.0179

RRIRQRPPRLPRPRPRPRYQPRP
shrunken log2 fold change: -0.0107

RRIRHRPPRLPRPRPRPYDCPRP
shrunken log2 fold change: -0.0596

RRIRYRPPRLPRPRPRPQTKPRP
shrunken log2 fold change: -0.168

RRIRKRPPRLPRPRPRPCAYPRP
shrunken log2 fold change: -0.0475

RRIRDRPPRLPRPRPRPQIRPRP
shrunken log2 fold change: -0.222

RRIRRRPPRLPRPRPRPRGRPRP
shrunken log2 fold change: 0.319

RRIRSRPPRLPRPRPRPLSHPRP
shrunken log2 fold change: -0.462

RRIRMRPPRLPRPRPRPMWTPRP
shrunken log2 fold change: 0.038

RRIRPRPPRLPRPRPRPSMFPRP
shrunken log2 fold change: -0.437

RRIRERPPRLPRPRPRPKFQPRP
shrunken log2 fold change: -0.268

RRIRYRPPRLPRPRPRPFRIPRP
shrunken log2 fold change: -0.535

RRIRPRPPRLPRPRPRPLWIPRP
shrunken log2 fold change: -0.128

RRIRNRPPRLPRPRPRPGWCPRP
shrunken log2 fold change: 2.24

RRIRGRPPRLPRPRPRPTYNPRP
shrunken log2 fold change: 0.0375

RRIRKRPPRLPRPRPRPQDTPRP
shrunken log2 fold change: -0.0445

RRIRYRPPRLPRPRPRPPVWPRP
shrunken log2 fold change: 0.0256

RRIRHRPPRLPRPRPRPWVLPRP
shrunken log2 fold change: -0.776

RRIRCRPPRLPRPRPRPYERPRP
shrunken log2 fold change: -0.133

RRIRKRPPRLPRPRPRPCPSPRP
shrunken log2 fold change: -0.0812

RRIRMRPPRLPRPRPRPRAIPRP
shrunken log2 fold change: 0.52

RRIRCRPPRLPRPRPRPIWKPRP
shrunken log2 fold change: 0.0906

RRIRYRPPRLPRPRPRPIRIPRP
shrunken log2 fold change: -0.144

RRIRERPPRLPRPRPRPWGFPRP
shrunken log2 fold change: 0.0221

RRIRKRPPRLPRPRPRPLRDPRP
shrunken log2 fold change: 0.757

RRIRHRPPRLPRPRPRPHKVPRP
shrunken log2 fold change: -0.299

RRIRTRPPRLPRPRPRPWKDPRP
shrunken log2 fold change: 0.0143

RRIRPRPPRLPRPRPRPWYTPRP
shrunken log2 fold change: -0.0297

RRIRGRPPRLPRPRPRPRERPRP
shrunken log2 fold change: 0.789

RRIRQRPPRLPRPRPRPTDSPRP
shrunken log2 fold change: -0.0401

RRIRFRPPRLPRPRPRPQHYPRP
shrunken log2 fold change: -1.01

RRIRHRPPRLPRPRPRPQMLPRP
shrunken log2 fold change: -0.0829

RRIRLRPPRLPRPRPRPLVLPRP
shrunken log2 fold change: -0.355

RRIRNRPPRLPRPRPRPWWMPRP
shrunken log2 fold change: -0.0246

RRIRNRPPRLPRPRPRPTYPPRP
shrunken log2 fold change: -0.275

RRIRIRPPRLPRPRPRPHLNPRP
shrunken log2 fold change: -0.852

RRIRVRPPRLPRPRPRPSPMPRP
shrunken log2 fold change: -0.261

RRIRRRPPRLPRPRPRPKHNPRP
shrunken log2 fold change: 0.396

RRIRIRPPRLPRPRPRPYEQPRP
shrunken log2 fold change: -0.868

RRIRHRPPRLPRPRPRPVSKPRP
shrunken log2 fold change: -0.0396

RRIRLRPPRLPRPRPRPKYNPRP
shrunken log2 fold change: -0.703

RRIRGRPPRLPRPRPRPPIGPRP
shrunken log2 fold change: 0.735

RRIRERPPRLPRPRPRPSKCPRP
shrunken log2 fold change: -0.488

RRIRPRPPRLPRPRPRPKWAPRP
shrunken log2 fold change: 0.0222

RRIRPRPPRLPRPRPRPAWRPRP
shrunken log2 fold change: 0.645

RRIRTRPPRLPRPRPRPLMNPRP
shrunken log2 fold change: -0.852

RRIRDRPPRLPRPRPRPWGCPRP
shrunken log2 fold change: 0.166

RRIRSRPPRLPRPRPRPSFHPRP
shrunken log2 fold change: -0.542

RRIRVRPPRLPRPRPRPYLGPRP
shrunken log2 fold change: -0.177

RRIRWRPPRLPRPRPRPKWIPRP
shrunken log2 fold change: -0.0267

RRIRMRPPRLPRPRPRPRCEPRP
shrunken log2 fold change: 0.704

RRIRGRPPRLPRPRPRPDHGPRP
shrunken log2 fold change: -0.0602

RRIRYRPPRLPRPRPRPQEIPRP
shrunken log2 fold change: -0.507

RRIRERPPRLPRPRPRPSCMPRP
shrunken log2 fold change: -0.416

RRIRGRPPRLPRPRPRPQENPRP
shrunken log2 fold change: 0.462

RRIRKRPPRLPRPRPRPNRAPRP
shrunken log2 fold change: -0.0335

RRIRFRPPRLPRPRPRPQPKPRP
shrunken log2 fold change: 0.666

RRIRKRPPRLPRPRPRPIFPPRP
shrunken log2 fold change: 0.319

RRIRFRPPRLPRPRPRPTNRPRP
shrunken log2 fold change: -0.346

RRIRARPPRLPRPRPRPNPAPRP
shrunken log2 fold change: 0.796

RRIRERPPRLPRPRPRPCHFPRP
shrunken log2 fold change: 0.161

RRIRQRPPRLPRPRPRPTMNPRP
shrunken log2 fold change: -0.298

RRIRKRPPRLPRPRPRPCPCPRP
shrunken log2 fold change: 0.00911

RRIRGRPPRLPRPRPRPVSRPRP
shrunken log2 fold change: 0.491

RRIRNRPPRLPRPRPRPYQQPRP
shrunken log2 fold change: -0.388

RRIRQRPPRLPRPRPRPPWQPRP
shrunken log2 fold change: 0.729

RRIRQRPPRLPRPRPRPILAPRP
shrunken log2 fold change: 0.465

RRIRERPPRLPRPRPRPQIIPRP
shrunken log2 fold change: -1.12
